This is an account of results in patent US20140314780A1, “Compositions Using Antibodies Directed to GPNMB and Uses Thereof” (Celldex Therapeutics, Inc., priority 2008, published 2014).

This experiment deals with T1, GPNMB (Homo sapiens, UniProt Q14956).
T1 construct: V5His; made in house
T1 sequence (Q14956 23-492): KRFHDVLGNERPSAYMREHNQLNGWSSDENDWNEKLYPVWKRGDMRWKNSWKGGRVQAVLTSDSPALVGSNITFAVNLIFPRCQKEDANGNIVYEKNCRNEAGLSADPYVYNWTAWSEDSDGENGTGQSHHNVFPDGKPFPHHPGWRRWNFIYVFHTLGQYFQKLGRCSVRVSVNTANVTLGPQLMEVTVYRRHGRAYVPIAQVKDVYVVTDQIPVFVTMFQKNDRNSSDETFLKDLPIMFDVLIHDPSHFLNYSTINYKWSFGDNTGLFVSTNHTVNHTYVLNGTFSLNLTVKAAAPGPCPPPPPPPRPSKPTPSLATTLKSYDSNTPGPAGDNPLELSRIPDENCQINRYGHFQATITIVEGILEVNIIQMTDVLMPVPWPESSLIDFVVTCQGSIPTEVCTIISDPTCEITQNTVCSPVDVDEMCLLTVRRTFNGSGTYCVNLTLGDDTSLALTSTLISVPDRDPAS
As to the kind of experiment: Epitope binning of anti-GPNMB antibodies (competitive binding). The settings on record: six anti-GPNMB antibodies, three bins. The text has this:
Certain antibodies, described herein were binned in accordance with the protocol described in U.S. Patent Application Publication No. 20030157730. […] Competitive binding by antibodies from […] supports antibody specificity for similar or adjacent epitopes. Non competitive binding supports antibody specificity for unique epitopes.
Three bins were created to further test the binding of six anti-GPNMB antibodies. Bin 1 included GPNMB antibodies (1.2.1), (1.10.1), and (2.22.1). Bin 2 included GPNMB antibodies (2.3.1) and (1.15.1), and Bin 3 included GPNMB antibody (2.10.1). The results of the binning assays are provided below in Tables 4 and 5.

B1: Mab2.22.1: human anti-GPNMB antibody; VH SEQ ID NO: 164, VL SEQ ID NO: 173 (antibody, listed as Homo sapiens, V domains shown)
VH: QVQLEQSGPGLVKPSQNLSLTCTVSGGSISSGGYFWSWIRQHPGKGLEWIGYIYYSGNTYYNPSLKSRVTISVDTSKNQFSLKLSSVTAADTAVYYCARDYYYDTSGFSYRYDWYYGMDVWGQGTTVTVSSA
VL: DIQLTQSPSSLSASVGDRVTITCRASQGIRNDLGWYQQKPGKAPKRLIYAASSLQNGVPSRFSGSGSGTEFTLTISSLQPEDFATYYCLQHNTYPAFGQGTKVEIKR
In the case of B1, the epitope bin result is “Bin 1”.
